The results in this text go back to patent WO2007023782A1 (dated 2007).

For test [1], the target named is T1, BSA (Bovine serum albumine) (bovine, UniProt P02769 25-607).
T1 construct: Negative control; also called negative control
Description: SPR (BIAcore X), BSA negative control.

Test [2] has as its target T2, nmAb-KT (neutralizing monoclonal antibody against HM-1 killer toxin).
T2 construct: also called nmb-KT; HM-1 neutralizing monoclonal antibody
Description: SPR (BIAcore X), nmAb-KT immobilised on CM5 chip; Ka = kon/koff.

For test [3], the target named is T2, nmAb-KT (neutralizing monoclonal …). Description: SPR (BIAcore X), nmAb-KT immobilised, rounded against Table 2. (In general: SPR reads the build-up and loss of mass on a sensor chip optically.)
The target is the same in test [4]. The experiment in a line: SPR (BIAcore X), nmAb-KT immobilised on CM5 chip, ScFv 15.75-250 nM as analyte, 25 C, HBS-EP.
Test [5] shares this target. Description: SPR (BIAcore X), nmAb-KT immobilised, differs in the last digit from Table 2.
For test [6] the target is unchanged. The experiment in a line: SPR (BIAcore X), nmAb-KT immobilised; ratio of Ka values.

T1 sequence (P02769 25-607 limits assumed): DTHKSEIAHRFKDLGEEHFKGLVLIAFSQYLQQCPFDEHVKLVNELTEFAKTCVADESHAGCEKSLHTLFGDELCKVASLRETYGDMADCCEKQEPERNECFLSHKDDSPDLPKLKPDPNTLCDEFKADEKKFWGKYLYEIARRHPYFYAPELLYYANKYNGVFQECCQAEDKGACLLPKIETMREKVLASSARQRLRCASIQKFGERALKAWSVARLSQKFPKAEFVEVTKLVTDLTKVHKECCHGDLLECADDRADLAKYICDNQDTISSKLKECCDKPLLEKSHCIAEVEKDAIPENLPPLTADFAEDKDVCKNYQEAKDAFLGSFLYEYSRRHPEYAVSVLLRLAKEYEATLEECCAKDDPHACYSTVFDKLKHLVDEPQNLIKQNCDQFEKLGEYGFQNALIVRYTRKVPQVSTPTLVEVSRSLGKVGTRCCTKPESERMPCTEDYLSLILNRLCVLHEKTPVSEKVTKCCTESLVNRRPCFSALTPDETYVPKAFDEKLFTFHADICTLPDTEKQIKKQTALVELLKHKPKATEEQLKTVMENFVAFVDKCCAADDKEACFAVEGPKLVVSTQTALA

B1: ScFv-A1 (scFv)
scFv: MAQVKLQQSGAELMKPGASVKISCKATGYTFSSYWIEWVKQRPGHGLEWIGEILPGSGSTNYNEKFKGKATFTADTSSNTAYMQLSSLTSEDSAVYYCARYYGNYYAMDYWGQGTTVTVSSGGGGSGGGGSGGGGSDIVLTQSPAIMSASPGEKVTITCSVSSSISSSNLHWYQQKSETSPKPWIYGTSNLASGVPGRFSGSGSGNSYSLTISSMEAEDVATYYCFQGSGYPLTFGSGTKLEIKRAAAGAPVPYPDPLEPR
notes: also called ScFv-Al; ScFv KTIdAb
B1: the binding result in test [1] is “no binding (tested: 15.75 nM-250 nM ScFv)”. The Ka in test [2] came to 4.79e+07 M⁻¹. The molecule also registered a Ka in test [3] of 4.8e+07 M⁻¹. Besides, in test [4], the koff (as a rule, a measure of how fast the partners let go of each other) is 0.00507 s⁻¹ and the kon (as a rule, a measure of how fast the partners come together) came to 243000 M⁻¹ s⁻¹.

B2: ScFv-A3 (scFv)
scFv: MAQVKLQQSGAELMKPGASVKISCKATGYTFSSYWIEWVKQRPGHGLEWIGEILPGSGSTNYNEKFKGKATFTADTSSNTAYMQLSSLTSEDSAVYYCARYYGNYYAMDYWGQGTTVTVSSGGGGSGGGGSGGGGSDIVLTQSPAIMSASPGEKVTITCSVSSSRSSSNLHWYQQKSETSPKPWIYGTSNLASGVPGRFSGSGSGKLLLSHDQQHEAEDVATYYCFQGSGYPLTFGSGTKLEIKRAAAGAPVPYPDPLEPR
notes: Mouse anti-idiotypic single chain Fv, VH-(Gly4Ser)3 linker-VL, with a C-terminal E-Tag; also called ScFv KTIdAb; anti-idiotypic ScFv
Consider B2, for which the binding result in test [1] is “no binding (tested: 15.75 nM-250 nM ScFv)”. The figures for the Ka in test [2] and in test [5] were 3.05e+07 M⁻¹ and 3.04e+07 M⁻¹, respectively. Moreover, in test [4], the koff was 0.00751 s⁻¹. The molecule also came in with a kon in test [4] of 229000 M⁻¹ s⁻¹.

B3: ScFv-A2 (scFv, V domains shown)
VH: QVKLQQSGAELMKPGASVKISCKATGYTFSSYWIEWVKQRPGHGLEWIGEILPGSGSTNYNEKFKGKATFTADTSSNTAYMQLSSLTSEDSAVYYCARYYGNYYAMDYWGQGTTVTVSS
notes: as for B2
Consider B3, for which the binding result in test [1] is “no binding (tested: 15.75 nM-250 nM ScFv)”. For the same molecule, in test [6], the “fold of affinity constant Ka against ScFv-A1 or ScFv-A4” value is around 1.2 fold and the “fold of affinity constant Ka against ScFv-A3” value was around 2 fold. In test [2], this molecule had a Ka of 6.66e+07 M⁻¹. The Ka in test [5] was 6.65e+07 M⁻¹. In test [4], this molecule came in with a koff of 0.00458 s⁻¹ and an association rate constant (kon) of 305000 M⁻¹ s⁻¹.

B4: ScFv-A4 (scFv)
scFv: MAQVKLQQSGAELMKPGASVKISCKATGYTFSSYWIEWVKQRPGHGLEWIGEILPGSGSTNYNEKFKGKATFTADTSSNTAYMQLSSLTSEDSAVYYCARYYGNYYAMDYWGQGTTVTVSSGGGGSGGGGSGGGGSDIVLTQSPAIMSASPGEKSPSPAVSAQVYVPATCTGTSRSQKPPPNPGFMAHPTWLLESQVASVAVGLENSYSLTISSMEAEDVATYYCFQGSGYPLTFGSGTKLEIKRAAAGAPVPYPDPLEPR
notes: as for B2
Turning to B4, in test [1], the binding result is given as “no binding (tested: 15.75 nM-250 nM ScFv)”. Moreover, the Ka in test [2] is 4.48e+07 M⁻¹. In test [4], this molecule came in with a koff of 0.005 s⁻¹ and an association rate constant (kon) of 224000 M⁻¹ s⁻¹.
